Biological target: T1, PPEP-3 E154A/Y190F (proteolytically inactive double mutant of Pro-Pro endopeptidase 3 from Geobacillus … (Geobacillus thermodenitrificans strain …, UniProt A4INY2 27-235, E154A | Y190F))
T1 construct: codon optimised for E. coli, cloned in pET28a via NdeI/XhoI; Zinc metalloprotease; for the substrate complex the catalytic Zn2+ was partly removed with EDTA and ortho-phenanthroline (occupancy about 40-50%); Surmise: pET28a with NdeI/XhoI adds an N-terminal His6 tag with a thrombin site; no cleavage of the tag is described, and 381 uM = 10 mg/mL (about 26 kDa) fits a kept tag; source: E. coli …
T1 sequence (looked up): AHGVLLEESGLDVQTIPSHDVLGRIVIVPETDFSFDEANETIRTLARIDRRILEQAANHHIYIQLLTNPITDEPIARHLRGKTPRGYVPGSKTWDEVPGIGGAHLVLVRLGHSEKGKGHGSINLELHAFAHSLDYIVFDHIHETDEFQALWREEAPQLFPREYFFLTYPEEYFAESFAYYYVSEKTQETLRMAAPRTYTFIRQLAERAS
Assay: crystal structure; co-crystal of the Zn2+-depleted (EDTA and ortho-phenanthroline) double mutant with the substrate peptide; sitting drop vapour diffusion, Morpheus E9, 0.1 M bicine/Trizma base pH 8.5; 2.02 Å, space group P212121, four monomers in the ASU
Settings: both partners purified

binding result: binds
B1: Ac-EPLPPPP-NH2 substrate peptide (peptide)
peptide: Ac-EPLPPPP-NH2
notes: synthetic substrate peptide of PPEP-3; P3-P3' are PLPPPP, cleavage between P1 and P1' prolines; also called PLPPPP (P3-P3'); source: synthetic peptide

Source: article PMC12828418, “Structural analyses and substrate profiling of PPEP-3 provide new insights into the molecular basis of Pro-Pro endopeptidase specificity” (iScience, 2025)
